We go through one molecule from patent publication US20230227520A1 (MAX PLANCK GESELLSCHAFT ZUR F RDERUNG DER WISSENSCHAFTEN E V, published 2023).

The target in experiment [1] is T1, G-CSF Receptor (G-CSFR) (R&D systems 381-GR-050/CF), recombinant human (human, UniProt Q99062 25-627, limits assumed).
T1 construct: Bought protein, amine-coupled to a CM5 chip; also called rhG-CSFR; human G-CSF receptor
T1 sequence (looked up): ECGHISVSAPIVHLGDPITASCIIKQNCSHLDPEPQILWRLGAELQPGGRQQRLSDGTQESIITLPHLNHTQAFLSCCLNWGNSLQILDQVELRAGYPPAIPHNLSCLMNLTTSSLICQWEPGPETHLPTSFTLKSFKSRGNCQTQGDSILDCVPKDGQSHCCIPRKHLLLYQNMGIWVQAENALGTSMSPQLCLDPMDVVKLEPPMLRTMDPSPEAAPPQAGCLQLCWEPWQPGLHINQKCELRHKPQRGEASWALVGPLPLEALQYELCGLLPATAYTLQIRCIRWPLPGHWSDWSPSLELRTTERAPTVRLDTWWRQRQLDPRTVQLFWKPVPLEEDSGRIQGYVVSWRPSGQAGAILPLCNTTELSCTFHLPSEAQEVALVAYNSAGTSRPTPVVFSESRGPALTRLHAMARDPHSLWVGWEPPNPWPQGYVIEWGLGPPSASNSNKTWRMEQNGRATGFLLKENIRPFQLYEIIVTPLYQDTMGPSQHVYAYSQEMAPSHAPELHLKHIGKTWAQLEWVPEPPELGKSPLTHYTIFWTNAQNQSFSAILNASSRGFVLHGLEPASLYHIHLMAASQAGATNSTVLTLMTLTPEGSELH
Nature of the experiment: SPR, Biacore X100 single-cycle kinetics, G-CSFR amine-coupled on CM5, 1:1 binding model, second run. How it is done: (§1) Single-cycle kinetics experiments were performed on a Biacore X100 system (GE Healthcare Life Sciences). G-CSF Receptor (G-CSFR) (R&D systems 381-GR-050/CF) was diluted to 50 μg/ml in 10 mM acetate buffer pH 5.0 and immobilized on the surface of a CM5 sensor chip (GE Healthcare 29149604) using standard amine coupling chemistry. The designs and rhG-CSF (USP RS Filgrastim, Sigma-Aldrich 1270435) were diluted in running buffer (10 mM HEPES, 150 mM NaCl, 3.4 mM EDTA, 0.005% v/v Tween-20). Analyses were conducted at 25° C. at a flow rate of 30 μl/min. Five sequential 10-fold increasing concentrations of the sample solution (for the designs from 0.5 nM to 50 μM, and for rhG-CSF from 0.05 to 500 nM) were injected over the functionalized sensor chip surface for 180 s, followed by a 180 s dissociation with running buffer. At the end of each run, the sensor surface was regenerated with a 240 s injection of 10 mM glycine-HCl pH 2.0. Each experiment was performed two times for rhG-CSF, Boskar3, Boskar4, diSohair2, Moevan, and Moevan_t2. Association rate (ka), dissociation rate (kd), and equilibrium dissociation (Kd) constants were initially obtained by global fitting of the experimental reference-subtracted data to a 1:1 interaction model using the Biacore X100 evaluation software (v.2.0.1). To evaluate if a kinetics model that depends on double the analyte stoichiometry improves the goodness of fit to the data, the following rate integral was used: […]
For orientation: In SPR one partner is held on a chip, and binding of the other changes the refractive index at the surface.

The target of experiment [2] is T1, G-CSF Receptor (G-CSFR) (R&D systems …). Nature of the experiment: SPR, Biacore X100 single-cycle kinetics, G-CSFR amine-coupled on CM5, 1:1 binding model. How it is done:
To test whether the grafted epitope residues mediate binding of the designs to the G-CSF receptor, the inventors also performed SPR measurements for the Moevan and diSohair2 initial design templates (Moevan_control and diSohair_control, respectively), and no binding was observed (FIG. 20C,F).
as §1

Experiment [3] has the same target. Nature of the experiment: SPR, second-order reaction model, value as told in the text; second-order reaction model, highest concentration sensorgram. How it is done: (§2) To obtain a more detailed picture on the nature of the binding, the inventors fitted the highest concentration sensorgram curves using higher order kinetics models. […] While this higher-order interaction model better explains the data than a 1:1 binding model, a clear deviation remained for rhG-CSF sensorgrams.
(§3) Single-cycle kinetics experiments were performed on a Biacore X100 system (GE Healthcare Life Sciences). G-CSF Receptor (G-CSFR) (R&D systems 381-GR-050/CF) was diluted to 50 μg/ml in 10 mM acetate buffer pH 5.0 and immobilized on the surface of a CM5 sensor chip (GE Healthcare 29149604) using standard amine coupling chemistry. The designs and rhG-CSF (USP RS Filgrastim, Sigma-Aldrich 1270435) were diluted in running buffer (10 mM HEPES, 150 mM NaCl, 3.4 mM EDTA, 0.005% v/v Tween-20). Analyses were conducted at 25° C. at a flow rate of 30 μl/min. Five sequential 10-fold increasing concentrations of the sample solution (for the designs from 0.5 nM to 50 μM, and for rhG-CSF from 0.05 to 500 nM) were injected over the functionalized sensor chip surface for 180 s, followed by a 180 s dissociation with running buffer. At the end of each run, the sensor surface was regenerated with a 240 s injection of 10 mM glycine-HCl pH 2.0. Each experiment was performed two times for rhG-CSF, Boskar3, Boskar4, diSohair2, Moevan, and Moevan_t2. Association rate (ka), dissociation rate (kd), and equilibrium dissociation (Kd) constants were initially obtained by global fitting of the experimental reference-subtracted data to a 1:1 interaction model using the Biacore X100 evaluation software (v.2.0.1).

Experiment [4] has the same target. Nature of the experiment: SPR, Biacore X100, G-CSFR amine-coupled on CM5, 2nd order kinetics model, second run. On the procedure:
as §2, §3

The target is the same in experiment [5]. The experiment is described as follows: SPR (Biacore), G-CSFR immobilised on the chip, rhG-CSF 4 nM - 64 nM as analyte, five traces with binding model fit [panel A].
The target is the same in experiment [6]. The experiment is described as follows: SPR, Biacore X100 single-cycle kinetics, G-CSFR amine-coupled on CM5, 1:1 binding model. How it is done:
as §1
This is another data set of the same source.

Experiment [7] has the same target. Nature of the experiment: SPR, Biacore X100, G-CSFR amine-coupled on CM5, 2nd order kinetics model. On the procedure: as §1
Experiment [8] has the same target. The experiment is described as follows: SPR, Biacore X100 single-cycle kinetics, G-CSFR amine-coupled on CM5, 1:1 binding model; Table 10 series (Moevan/diSohair2 comparison), 1:1 binding model.

B1: rhG-CSF (recombinant human G-CSF; USP RS Filgrastim, Sigma-Aldrich 1270435) (ligand)
chain: TPLGPASSLPQSFLLKCLEQVRKIQGDGAALQEKLCATYKLCHPEELVLLGHSLGIPWAPLSSCPSQALQLAGCLSQLHSGLFLYQGLLQALEGISPELGPTLDTLQLDVADFATTIWQQMEELGMAPALQPTQGAMPAFASAFQRRAGGVLVASHLQSFLEVSYRVLRHLAQP
The Kd is the equilibrium constant for the complex coming apart. What is called koff is the rate constant with which the complex falls apart. A word on the kon: it is the second-order rate constant of association. As to B1, the Kd in experiment [1] was determined as 0.41 nM; in experiment [3] it was 86 nM; in experiment [4], 88 nM; in experiment [5], 1.4 nM; in experiment [6], 0.36 nM; in experiment [7] it was 82 nM. The Kd in experiment [8] was determined as 1.1 nM. Also, the off-rate (koff) in experiment [1] came out at 0.00026 s⁻¹; in experiment [2] it was 0.00049 s⁻¹; in experiment [4], 0.00084 s⁻¹; in experiment [5], 0.0004 s⁻¹; in experiment [6], 0.00028 s⁻¹; in experiment [7] it was 0.0009 s⁻¹. Moreover, the on-rate constant (kon) in experiment [1] is 640000 M⁻¹ s⁻¹; in experiment [2] it was 300000 M⁻¹ s⁻¹; in experiment [4], 10000 M⁻¹ s⁻¹; in experiment [5] it was 290000 M⁻¹ s⁻¹; in experiment [6], 790000 M⁻¹ s⁻¹; in experiment [7], 11000 M⁻¹ s⁻¹.
